Assay [1] deals with T1, monkey TIM-3 extracellular domain protein with hFc tag (cTIM-3-hFc) (monkey).
T1 construct: not shown: human IgG Fc fragment (hFc) of the pCpC vector
T1 chain: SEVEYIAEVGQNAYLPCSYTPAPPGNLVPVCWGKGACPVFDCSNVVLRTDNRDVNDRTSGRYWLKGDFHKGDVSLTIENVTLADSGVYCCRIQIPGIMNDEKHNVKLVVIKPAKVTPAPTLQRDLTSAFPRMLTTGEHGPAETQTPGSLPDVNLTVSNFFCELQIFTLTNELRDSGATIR
Kind of assay: ELISA, coated monkey TIM-3 ECD protein, 0.6667 nM antibody. (An ELISA detects its analyte on a solid surface through an enzyme-linked reagent.)

The target in assay [2] is T2, human TIM-3 on CHOK1 stable cell line (CHOK1-hTIM-3) (human, UniProt Q8TDQ0 22-301).
T2 sequence: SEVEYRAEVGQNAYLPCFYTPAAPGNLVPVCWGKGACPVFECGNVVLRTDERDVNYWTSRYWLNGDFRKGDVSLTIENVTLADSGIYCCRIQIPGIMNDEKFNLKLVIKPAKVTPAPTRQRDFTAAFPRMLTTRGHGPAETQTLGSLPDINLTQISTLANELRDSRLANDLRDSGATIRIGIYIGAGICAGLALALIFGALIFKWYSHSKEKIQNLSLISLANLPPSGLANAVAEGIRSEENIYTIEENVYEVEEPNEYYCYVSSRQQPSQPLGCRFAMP
Kind of assay: FACS, CHOK1-hTIM-3 cells, 40 nM antibody.

For assay [3], the target named is T2, human TIM-3 on CHOK1 stable cell line …. Kind of assay: FACS, CHOK1-hTIM-3 cells, 1.6 nM antibody. In general terms: In flow cytometry, cells or beads pass a laser one at a time.
The target in assay [4] is T3, monkey TIM-3 on CHOK1 stable cell line (CHOK1-cTIM-3) (monkey).
T3 chain: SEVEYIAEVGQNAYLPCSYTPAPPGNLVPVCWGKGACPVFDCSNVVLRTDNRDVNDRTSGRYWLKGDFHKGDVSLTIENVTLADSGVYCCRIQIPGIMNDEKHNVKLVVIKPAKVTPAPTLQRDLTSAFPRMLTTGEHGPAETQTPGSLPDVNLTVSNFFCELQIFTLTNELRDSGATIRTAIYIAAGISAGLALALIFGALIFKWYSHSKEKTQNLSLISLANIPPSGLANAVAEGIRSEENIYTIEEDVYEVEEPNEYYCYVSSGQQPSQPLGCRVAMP
Kind of assay: FACS, CHOK1-cTIM-3 cells, 40 nM antibody.

Assay [5] has as its target T3, monkey TIM-3 on CHOK1 stable cell line …. Kind of assay: FACS, CHOK1-cTIM-3 cells, 8 nM antibody.
Assay [6] deals with T4, murine TIM-3 extracellular domain protein with hFc tag (mTIM-3-hFc) (mouse, UniProt Q8VIM0 29-191).
T4 construct: also called mouse TIM-3 extracellular domain protein; not shown: human IgG Fc fragment (hFc) of the pCpC vector
T4 chain: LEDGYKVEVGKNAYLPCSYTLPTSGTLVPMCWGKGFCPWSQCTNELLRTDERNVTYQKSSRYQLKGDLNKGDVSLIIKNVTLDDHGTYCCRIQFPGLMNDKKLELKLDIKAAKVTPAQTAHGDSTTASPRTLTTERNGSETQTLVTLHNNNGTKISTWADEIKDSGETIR
The assay is described as follows: ELISA, coated mouse TIM-3 ECD protein, 0.0667 nM antibody.

Assay [7] has as its target T1, monkey TIM-3 extracellular domain …. Kind of assay: ELISA, coated monkey TIM-3 ECD protein, 0.0001 nM antibody.
For assay [8], the target named is T4, murine TIM-3 extracellular domain …. Kind of assay: ELISA, coated mouse TIM-3 ECD protein, 0.0067 nM antibody.
Assay [9] addresses T3, monkey TIM-3 on CHOK1 stable cell line …. Kind of assay: FACS, CHOK1-cTIM-3 cells, 0.32 nM antibody.

B1: 18D2H2 fully human TIM-3 antibody (human IgG4, kappa) (antibody, V domains shown)
VH: EVQLVESGGDLVQPGGSLRLSCAASGFTFSTYWMTWVRQAPGRGLEWVANIKQDGSAKYYVDSVKGRFTLSRDDAKNSLYLQMNSLRAEDTAVYYCARGSNWFDYWGQGTLVTVSS
VL: ETVMTQSPATLSVSPGERATLSCRANQNVYSNLAWYQQKPGQAPRLLIYDASTRATGFPARFSGSGSGTEFTLTISSLQSEDFAVYYCQQYNNWPLTFGGGTKVEIK
As to B1, the OD450 in [1] worked out at 3.16; in assay [6], 0.22; in assay [7] it was 0.14; in assay [8] it was 0.22. For the same molecule, the Mean fluorescence intensity was found to be 257 in [2]; 232 in assay [3]; 462 in assay [4]; 475 in assay [5]; 127 in [9].

B2: 39E5H1 fully human TIM-3 antibody (human IgG4, kappa) (antibody, V domains shown)
VH: EVQLVESGGGLVQPGGSLRLSCAASGFTFSSYWMSWVRQAPGKGLEWVANIKRGGSERYYVDSVKGRFTISGDNAKNSVYLQMNSLRAEDTAVYYCARGSNWFDPWGQGTLVTVSS
VL: ETVMTQSPAILSVSPGERATLSCRASQSVYSNLAWYQQKLGQAPRLLIYDASTRATGIPARFSGSGSGTEFTLTISSLQSEDFAVYYCQQYNNWPITFGQGTRLEIK
For the molecule B2, the OD450 in [1] turned out to be 3.23; in assay [6], 0.24; in [7], 0.17; in assay [8], 0.23. Besides, the Mean fluorescence intensity in assay [2] came to 264; in assay [3] it was 191; in assay [4], 337; in assay [5], 349; in assay [9], 132.

B3: 34B6D8 fully human TIM-3 antibody (human IgG4, kappa) (antibody, V domains shown)
VH: EVQLVESGGGLVQPGGSLRLSCAASGFTFSTYWMTWVRQAPGKRLEWVANIKQGGGDKYYVDSVKGRFTISTDNAKNSLYLQMNSLRAEDTAVYYCARGSNWFDPWGQGTLVTVSS
VL: EIVMTQSPATLSMSPGERATLSCRASQSVYDNLAWYQQKPGQAPRLLIYGASTRATGIPARFSGSGSGTEFTLTISSLQSEDFALYYCQQYTHWPITFGQGTRLEIK
Take B3: the OD450 in [1] is 3.37; in assay [6], 0.25; in assay [7] it was 0.17; in assay [8], 0.24. Moreover, the Mean fluorescence intensity worked out at 221 in [2]; 212 in assay [3]; 336 in assay [4]; 340 in assay [5]; 109 in [9].

These data come from patent US20220033501A1 (SHANGHAI PHARMAEXPLORER, published 2022).
